The results in this text go back to FireProtDB (doi:10.1093/protein/11.3.213).

For the data set the following is noted: Escherichia phage lambda; pH 6.6; 25 °C; Thermal; Fluorescence; phosphate 0.1 M; reversible: yes; whole UniProt chain shown.

B1: Endolysin wild type, P03706 (protein)
chain: MVEINNQRKAFLDMLAWSEGTDNGRQKTRNHGYDVIVGGELFTDYSDHPRKLVTLNPKLKSTGAGRYQLLSRWWDAYRKQLGLKDFSPKSQDAVALQQIKERGALPMIDRGDIRQAIDRCSNIWASLPGAGYGQFEHKADSLIAKFKEAGGTVREIDV
As for B1, the unfolding free energy was determined as 3.54 kcal/mol.
